According to patent US20240043528A1, “NANOBODY-OGA FUSIONS AND USES THEREOF” (President and Fellows of Harvard College, priority 2020, published 2024):
“Also recorded” adds a separate entry of the source. One block for each molecule: values may come before it.

What was measured:
GFP-Nup62 = assay: Deglycosylation of GFP-Nup62 co-expressed with OGA constructs (anti-EPEA enrichment, RL2 immunoblot); format: cell-based, human; conditions: for deglycosidase activity on GFP-Nup62 of N fragment: N fragment paired with C1 (aa 414-916)
Procedure: HEK 293T cells were cultured in Dulbecco's Modified Eagle Medium (DMEM, Cat #11995073) supplemented with penicillin (50 μg/mL) and streptomycin (50 μg/mL) along with 10% (v/v) FBS. Transfections of all plasmids in this study were performed using TransIT-PRO® (Mirus Bio, Cat #MIR 5740) according to the manufacturer's instructions.
Glycoproteins Nup62, Sp1, JunB, c-Jun were subcloned into pcDNA3.1 vector with a GFP and a Flag-tag or a BC2 tag in the N-terminus and an EPEA tag in the C terminus respectively, unless otherwise noted. For all split OGA constructs with or without the fusion of nanobody GFP, N fragments were tagged with myc tag and C fragments were tagged with HA tag respectively. Human SP1 cDNA ORF plasmid (Cat #HG12024-G), human c-Fos cDNA ORF plasmid, and human OGT cDNA ORF cloned with a C-terminal His tag (Cat #HG11279-M) were purchased from Sino Biological. For subcloning, PCR fragments were amplified using Q5 High-Fidelity 2× Master Mix (New England BioLabs, Cat #M0492S). The vectors were double-digested and ligated to gel-purified PCR products by T4 ligation using T4 DNA ligase (New England BioLabs, Cat #M0202S) or by Gibson assembly using Gibson Assembly Master mix (New England BioLabs, Cat #E2611L). c-Fos was subcloned into a pcDNA3.1 vector with a 14-residue Ubc tag (amino acids: QADQEAKELARQIA (SEQ ID NO: 11)), Flag tag, and EPEA tag at the C terminus. All nanobody DNA fragments were synthesized by IDT.
After 36-48 h of transfection, cells were harvested and washed with PBS once. Cells were lysed with M-PER lysis buffer containing 1× protease inhibitor cocktail and 10 μM Thiamet-G unless otherwise noted. Protein concentrations were determined by the BCA assay kit (G-Biosciences, 786) on a multi-mode microplate reader FilterMax F3 (Molecular Devices LLC, Sunnyvale, CA).
For immunoprecipitation of proteins with the C-terminal EPEA tag, cell lysates with equal amounts of protein were diluted with PBS and incubated with C-tag affinity matrix (Thermo Scientific) for 1 h at room temperature, with end-to-end rotation, following the manufacturer's instructions. After washing three times with PBS buffer, the enriched proteins were eluted with SDS sample buffer and subjected to SDS-PAGE.
For immunoblotting analysis, proteins were transferred to a nitrocellulose membrane using iBlot (Thermo Scientific). Membranes were blocked with Tris buffered saline containing 0.1% Tween-20 and 5% BSA and incubated with the primary antibodies (1:1000 dilution) and the secondary antibodies (1:10,000 dilution) sequentially. Immunoblot images were captured by Azure Imager C600. Analysis of immunoblots was conducted with Fiji ImageJ. All IR fluorescence western blot images are converted into grayscale images by Fiji ImageJ. The unsaturated exposure of immunoblot images was used for quantification with the appropriate loading controls as standards. Statistical analysis of the data was performed with Prism 8, using data from at least three independent experiments.

myc-OGA(1-400) = biological target: T1, myc-OGA(1-400) (human, UniProt O60502 1-400); assay: co-immunoprecipitation (anti-c-Myc / anti-HA magnetic beads) from HEK 293T lysates, immunoblot
T1 construct: also called N2; N fragment
T1 sequence: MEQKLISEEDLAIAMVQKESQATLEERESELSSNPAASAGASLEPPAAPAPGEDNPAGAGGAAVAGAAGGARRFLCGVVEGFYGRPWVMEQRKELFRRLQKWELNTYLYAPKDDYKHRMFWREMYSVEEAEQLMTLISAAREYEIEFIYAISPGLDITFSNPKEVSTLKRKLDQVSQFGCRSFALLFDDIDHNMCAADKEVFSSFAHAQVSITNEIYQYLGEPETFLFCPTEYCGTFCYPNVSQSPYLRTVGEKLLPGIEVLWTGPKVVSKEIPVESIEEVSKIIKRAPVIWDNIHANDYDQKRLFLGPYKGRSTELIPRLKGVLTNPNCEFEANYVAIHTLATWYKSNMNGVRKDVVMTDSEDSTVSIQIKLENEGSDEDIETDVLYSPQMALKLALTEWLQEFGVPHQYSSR
Procedure: The asterisk indicates IgG heavy chain from anti-c-Myc magnetic beads. […] In FIG. 9A and FIG. 9C, activities of fragments alone or pairs with/without nGFP were evaluated on GFP-Nup62, which was enriched by beads against EPEA tag and blotted with RL2 antibody to reveal O-GlcNAc modification level. D174N is a catalytically impaired mutation on OGA. Anti-myc and anti-HA blots detect expression of full-length (fl-OGA) or N-terminal fragment, and C-terminal fragment, respectively. WCL, whole cell lysates. The data in FIGS. 9A-9C are representative of at least two biological replicates.
For immunoprecipitation of proteins with anti-HA (Pierce, 88836) or anti-c-Myc (Pierce, 88842) magnetic beads, cell lysates with equal amounts of protein were diluted with 1×TBS-T buffer (25 mM Tris HCl pH 7.4, 150 mM NaCl, 0.05% Tween-20) and incubated with pre-washed magnetic beads at room temperature for 30 min with mixing, following the manufacturer's instructions. Anti-HA magnetic beads were washed three times with TBS-T buffer and once with ultrapure water. Anti-c-Myc magnetic beads were washed three times with 5×TBS-T buffer and once with ultrapure water. The enriched proteins were eluted with SDS sample buffer and subjected to SDS-PAGE.

HA-OGA(414-916), O60502 = biological target: T2, HA-OGA(414-916), O60502
T2 chain: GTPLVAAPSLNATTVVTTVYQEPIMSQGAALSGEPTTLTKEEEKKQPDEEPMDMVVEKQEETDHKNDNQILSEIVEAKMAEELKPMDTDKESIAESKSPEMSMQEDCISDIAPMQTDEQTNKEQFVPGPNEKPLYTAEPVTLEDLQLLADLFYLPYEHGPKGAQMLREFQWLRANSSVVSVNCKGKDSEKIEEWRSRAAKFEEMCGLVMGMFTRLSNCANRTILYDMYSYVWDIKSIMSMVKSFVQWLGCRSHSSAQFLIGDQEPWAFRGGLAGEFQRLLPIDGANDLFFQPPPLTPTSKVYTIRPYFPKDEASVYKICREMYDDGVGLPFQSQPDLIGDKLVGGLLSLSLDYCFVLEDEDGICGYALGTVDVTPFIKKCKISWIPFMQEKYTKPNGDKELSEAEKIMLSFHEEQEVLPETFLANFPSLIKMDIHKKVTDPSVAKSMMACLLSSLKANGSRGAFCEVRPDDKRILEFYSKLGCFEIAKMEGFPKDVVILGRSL

B1: N2: myc-OGA(1-400) N fragment (SEQ ID NO: 4) (protein)
chain: MEQKLISEEDLAIAMVQKESQATLEERESELSSNPAASAGASLEPPAAPAPGEDNPAGAGGAAVAGAAGGARRFLCGVVEGFYGRPWVMEQRKELFRRLQKWELNTYLYAPKDDYKHRMFWREMYSVEEAEQLMTLISAAREYEIEFIYAISPGLDITFSNPKEVSTLKRKLDQVSQFGCRSFALLFDDIDHNMCAADKEVFSSFAHAQVSITNEIYQYLGEPETFLFCPTEYCGTFCYPNVSQSPYLRTVGEKLLPGIEVLWTGPKVVSKEIPVESIEEVSKIIKRAPVIWDNIHANDYDQKRLFLGPYKGRSTELIPRLKGVLTNPNCEFEANYVAIHTLATWYKSNMNGVRKDVVMTDSEDSTVSIQIKLENEGSDEDIETDVLYSPQMALKLALTEWLQEFGVPHQYSSR
modifications: myc tag
deglycosidase activity on GFP-Nup62 of N fragment (GFP-Nup62; HEK 293T cells): possessed deglycosylation capability when paired with C1

binding result (myc-OGA(1-400)): no binding
B2: HA-OGA(554-706) (enzyme, human, UniProt O60502 554-706, looked up)
chain: TLEDLQLLADLFYLPYEHGPKGAQMLREFQWLRANSSVVSVNCKGKDSEKIEEWRSRAAKFEEMCGLVMGMFTRLSNCANRTILYDMYSYVWDIKSIMSMVKSFVQWLGCRSHSSAQFLIGDQEPWAFRGGLAGEFQRLLPIDGANDLFFQPP
notes: range 554-706; the legend prints C4; also called C4; not shown: N-terminal HA tag

B3: OGA(cat): catalytic domain of OGA alone, residues 1-366, myc tag (protein, UniProt O60502 1-366, looked up, fragment)
chain: MVQKESQATLEERESELSSNPAASAGASLEPPAAPAPGEDNPAGAGGAAVAGAAGGARRFLCGVVEGFYGRPWVMEQRKELFRRLQKWELNTYLYAPKDDYKHRMFWREMYSVEEAEQLMTLISAAREYEIEFIYAISPGLDITFSNPKEVSTLKRKLDQVSQFGCRSFALLFDDIDHNMCAADKEVFSSFAHAQVSITNEIYQYLGEPETFLFCPTEYCGTFCYPNVSQSPYLRTVGEKLLPGIEVLWTGPKVVSKEIPVESIEEVSKIIKRAPVIWDNIHANDYDQKRLFLGPYKGRSTELIPRLKGVLTNPNCEFEANYVAIHTLATWYKSNMNGVRKDVVMTDSEDSTVSIQIKLENEGSDE
modifications: catalytic domain myc tag
notes: catalytic domain of OGA alone, residues 1-366, myc tag
deglycosidase activity on GFP-Nup62 of N fragment (GFP-Nup62; HEK 293T cells): no activity was seen on GFP-Nup62
deglycosidase activity / O-GlcNAc modification level on GFP-Nup62 (GFP-Nup62; co-expressed in HEK 293T cells): inactive
deglycosidase activity on GFP-Nup62 after fusion of nGFP (GFP-Nup62; nGFP fused to a fragment, HEK 293T cells, listed as N3): could not be recovered; also recorded: unable to reconstitute OGA's activity with any C-fragments shown in this study even in the presence of nGFP

B4: myc-OGA(1-413) (protein)
chain: MVQKESQATLEERESELSSNPAASAGASLEPPAAPAPGEDNPAGAGGAAVAGAAGGARRFLCGVVEGFYGRPWVMEQRKELFRRLQKWELNTYLYAPKDDYKHRMFWREMYSVEEAEQLMTLISAAREYEIEFIYAISPGLDITFSNPKEVSTLKRKLDQVSQFGCRSFALLFDDIDHNMCAADKEVFSSFAHAQVSITNEIYQYLGEPETFLFCPTEYCGTFCYPNVSQSPYLRTVGEKLLPGIEVLWTGPKVVSKEIPVESIEEVSKIIKRAPVIWDNIHANDYDQKRLFLGPYKGRSTELIPRLKGVLTNPNCEFEANYVAIHTLATWYKSNMNGVRKDVVMTDSEDSTVSIQIKLENEGSDEDIETDVLYSPQMALKLALTEWLQEFGVPHQYSSRQVAHSGAKASVVD
deglycosidase activity on GFP-Nup62 (O-GlcNAc RL2 immunoblot) (HA-OGA(414-916), O60502): The N- and C-terminal fragments can associate to reconstitute OGA enzymatic activity when co-expressed simultaneously in living cells
